By IC50 is commonly meant the concentration that inhibits the measured activity by half.

In experiment [1] the target is T1, recombinant VEGFR-2 protein (water soluble extracellular site of human VEGFR-2 with Fc of human IgG1 … (human, UniProt P35968 20-764)).
T1 construct: extracellular domain; Bought; not shown: Fc of human IgG1
Put plainly: competitive ELISA; synergibody titrated with 1 nM VEGFR-2 on coated VEGF 165. As for the experimental part: Competitive ELISA is performed using the peptides synthesized above in Section 6A in order to assess the molecular interaction of the binders. […] Then the plate is washed five times with PBS containing 0.1% Tween-20, and blocked at room temperature for two hours with PBS containing 5% BSA. For VEGF:VEGFR-2 neutralization ELISA, each of the peptides synthesized in Section 6A above are diluted to one-fourth each time from 100 nM with PBS containing 1 nM VEGFR-2 and 1% BSA, and adjusted to 6.1 pM. 100 μl of peptide/VEGFR-2 solution is added to each well and the plate is left to react at room temperature for two hours. Subsequently, it is washed five times with PBS containing 0.1% Tween-20, mouse anti-VEGFR-2 antibodies (R&D Systems) is diluted to about 1:3,000 with PBS containing 1% BSA, and left to react at room temperature for one hour. Then 100 μl of goat anti-mouse-IgG-HRP (Pierce) diluted to about 1:10,000 with PBS containing 1% BSA is added to each well of the plate, left to react at room temperature for one hour, and washed five times with PBS containing 0.1% Tween-20. Lastly, 100 μl of TMB substrate (SIGMA) is added to each well of the plate to induce color reaction. The reaction is stopped by adding 50 μl of 5N H₂SO₄ solution, and the OD₄₅₀ value is read on a plate reader (Molecular Devices). Through the foregoing, the IC₅₀ value for the VEGF:VEGFR-2 binding capacity is obtained.
The method in Example 2, Section 6B above is used, except that, in the present example, each fused protein synergibodies are diluted from 100 nM to one-fourth each time with PBS containing 1% BSA and 1nM VEGFR-2 and adjusted to 6.1 pM for VEGF:VEGF-2 neutralization ELISA.
A general note: ELISA stands for enzyme-linked immunosorbent assay.

Experiment [2] deals with T2, recombinant hAng-2 (recombinant protein with His tag attached to human Ang-2; R&D Systems) (human, UniProt O15123 19-496).
T2 construct: also called angiopoietin-2; ANGPT2
T2 sequence (looked up): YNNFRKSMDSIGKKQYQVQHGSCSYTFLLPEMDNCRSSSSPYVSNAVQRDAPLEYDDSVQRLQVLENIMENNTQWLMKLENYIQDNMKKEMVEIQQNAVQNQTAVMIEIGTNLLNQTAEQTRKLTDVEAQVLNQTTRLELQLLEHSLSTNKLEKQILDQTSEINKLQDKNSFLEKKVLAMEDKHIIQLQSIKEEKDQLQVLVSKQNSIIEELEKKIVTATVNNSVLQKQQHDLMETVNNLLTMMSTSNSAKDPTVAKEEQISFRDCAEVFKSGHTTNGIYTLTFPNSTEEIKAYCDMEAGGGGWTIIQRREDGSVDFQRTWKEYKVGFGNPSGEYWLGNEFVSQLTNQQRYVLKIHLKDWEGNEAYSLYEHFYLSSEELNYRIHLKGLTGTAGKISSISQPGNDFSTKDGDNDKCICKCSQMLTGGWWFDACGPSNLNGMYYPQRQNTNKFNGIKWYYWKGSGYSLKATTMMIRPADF
Put plainly: competitive ELISA; synergibody titrated with 1 nM hAng-2 (His) on coated hTie2-Fc. As for the experimental part: A competitive ELISA is performed to assess the molecular interaction of the binders. A 96-well MaxiSorp™ flat-bottom plate (Nunc) is coated with hTie2-Fc (R&D Systems), which is a fused protein including the water-soluble extracellular portion of human Tie-2 and Fc of human IgG₁ dissolved in DMEM culture solution containing 50 μg/ml bovine serum albumin (BSA). The concentration of hTie2-Fc used as a coating material is equivalent to 75% of its maximum binding concentration with 1 nM of recombinant hAng-2 (recombinant protein with His tag attached to human Ang-2; R&D Systems). Then the plate is washed five times with Phosphate Buffer Saline (PBS) containing 0.1% Tween-20 and blocked at room temperature for two hours with PBS containing 5% BSA. Each anti-Ang-2 antibodies are diluted from 100 nM by one-fourth each time with PBS containing 1% BSA and 1 nM hAng-2 and adjusted to 6.1 pM for Ang-2:Tie-2 neutralization ELISA. 100 μl of antibody/hAng-2 solutions are placed in each corresponding well and left to react at room temperature for two hours. Then the wells are washed five times with PBS containing 0.1% Tween-20, and the anti-His antibodies (GE Healthcare) are diluted to about 1:3,000 with PBS containing 1% BSA and left to react at room temperature for one hour. Afterwards, 100 μl of goat anti-mouse-IgG-HRP (Pierce) diluted with PBS containing 1% BSA to about 1:10,000 is added to each well of the plate, left to react at room temperature for one hour, and washed with PBS containing 0.1% Tween-20 five times. Lastly, 100 μl of TMB substrate (SIGMA) is added to each well of the plate to induce color reaction, and the reaction is stopped by adding 50 μl of 5N H₂SO₄ solution. The OD₄₅₀ value is read on a plate reader (Molecular Devices).
The method described in Example 1, Section 3 above is used, except that, in the present example, each fused protein synergibodies are diluted from 100 nM to one-fourth each time with PBS containing 1% BSA and 1 nM hAng-2 and adjusted to 6.1 pM for Ang-2:Tie-2 neutralization ELISA.

T1 sequence (P35968 20-764): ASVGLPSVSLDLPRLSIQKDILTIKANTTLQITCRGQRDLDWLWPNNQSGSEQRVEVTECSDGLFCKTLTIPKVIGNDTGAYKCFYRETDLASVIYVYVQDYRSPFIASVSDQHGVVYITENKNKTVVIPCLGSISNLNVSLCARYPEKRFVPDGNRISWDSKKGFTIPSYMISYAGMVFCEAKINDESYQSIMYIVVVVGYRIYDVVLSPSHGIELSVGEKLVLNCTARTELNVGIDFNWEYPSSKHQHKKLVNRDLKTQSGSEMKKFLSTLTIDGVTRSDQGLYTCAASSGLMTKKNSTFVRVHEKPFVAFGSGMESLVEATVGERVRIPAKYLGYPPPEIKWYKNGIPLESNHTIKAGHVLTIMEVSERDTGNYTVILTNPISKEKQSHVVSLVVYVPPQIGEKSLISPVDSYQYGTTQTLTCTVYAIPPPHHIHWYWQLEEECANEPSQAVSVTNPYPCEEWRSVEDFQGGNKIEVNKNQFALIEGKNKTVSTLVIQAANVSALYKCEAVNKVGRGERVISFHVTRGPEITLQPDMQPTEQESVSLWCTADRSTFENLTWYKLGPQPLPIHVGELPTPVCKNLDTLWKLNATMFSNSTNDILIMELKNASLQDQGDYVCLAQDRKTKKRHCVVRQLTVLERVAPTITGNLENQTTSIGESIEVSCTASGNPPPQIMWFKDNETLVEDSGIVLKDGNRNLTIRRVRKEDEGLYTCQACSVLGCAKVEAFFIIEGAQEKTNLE

B1: Syn-Ang-VEGFR-17 (other)
heavy (part 1 of 2): QVQLQQSGAELARPGASVKLSCKASGYTFTDYYINWAKQRTGQGLEWIGEIYPGSGDTYYNEKFKGKATLTADKSSSTAYMQLSSLTSEDSAVYFCARYGYKGVYFDYWGQSTTLTVSS
heavy (part 2 of 2): EAGKETCGYEWQYCPRP
light: ENVLTQSPAIMAASLGQKVTMTCSASSSVSSSYLHWYQQKSGASPKPLIHRTSNLASGVPARFSGSGSGTSYSLTISSVEAEDDATYYCQQWSGYPFTFGAGTKLELK
notes: Chimeric (human IgG1) SAITAng-2-4 with the peptide at the C-terminus of the heavy chain; also called SAITAng-2-4 x DTN8VEGFR-2-2; not shown: human IgG1 heavy chain constant region with Fc region, from the vector; human light chain constant region, printed as 'constant region of human IgG1'
With B1, the IC50 was 1050 pM in experiment [1] and 998 pM in experiment [2].

B2: Syn-Ang-VEGFR-11 (other)
heavy (part 1 of 2): DVQLVESGGGLVQPGGSRKLSCAASGFTFSSFGMHWVRQAPEKGLEWVAYISSDSSTIYYADTVKGRFTISRDNPKNTLFLQMTSLRSEDTAMYYCAREGGYDDYYAMDYWGQGTSVTVSS
heavy (part 2 of 2): TGSDDLCYTFPCMHY
light: DIQMTQSPASQSASLGESVTITCLASQTIGTWLAWYQQKPGKSPQLLIYAATSLADGVPSRFSGSGSGTKFSFKISSLQAEDFVSYYCQQLYSIPLTFGGGTKLEIK
notes: Chimeric (human IgG1) SAITAng-2-3 with the peptide at the C-terminus of the heavy chain; also called SAITAng-2-3 x DTN6VEGFR-2-1; not shown: human IgG1 heavy chain constant region with Fc region, from the vector; human light chain constant region, printed as 'constant region of human IgG1'
For B2, the IC50 in experiment [1] worked out at 872 pM; in experiment [2], 858 pM.

B3: Syn-Ang-VEGFR-14 (other)
heavy (part 1 of 2): DVQLVESGGGLVQPGGSRKLSCAASGFTFSSFGMHWVRQAPEKGLEWVAYISSDSSTIYYADTVKGRFTISRDNPKNTLFLQMTSLRSEDTAMYYCAREGGYDDYYAMDYWGQGTSVTVSS
heavy (part 2 of 2): TGSGRMCDGSGPPTNCWFT
light: DIQMTQSPASQSASLGESVTITCLASQTIGTWLAWYQQKPGKSPQLLIYAATSLADGVPSRFSGSGSGTKFSFKISSLQAEDFVSYYCQQLYSIPLTFGGGTKLEIK
notes: Chimeric (human IgG1) SAITAng-2-3 with the peptide at the C-terminus of the heavy chain; also called SAITAng-2-3 x DTN10VEGFR-2-4; not shown: human IgG1 heavy chain constant region with Fc region, from the vector; human light chain constant region, printed as 'constant region of human IgG1'
Consider B3, for which the IC50 in experiment [1] stood at 889 pM; in experiment [2], 887 pM.

B4: Syn-Ang-VEGFR-12 (other)
heavy (part 1 of 2): DVQLVESGGGLVQPGGSRKLSCAASGFTFSSFGMHWVRQAPEKGLEWVAYISSDSSTIYYADTVKGRFTISRDNPKNTLFLQMTSLRSEDTAMYYCAREGGYDDYYAMDYWGQGTSVTVSS
heavy (part 2 of 2): EAGKETCGYEWQYCPRP
light: DIQMTQSPASQSASLGESVTITCLASQTIGTWLAWYQQKPGKSPQLLIYAATSLADGVPSRFSGSGSGTKFSFKISSLQAEDFVSYYCQQLYSIPLTFGGGTKLEIK
notes: Chimeric (human IgG1) SAITAng-2-3 with the peptide at the C-terminus of the heavy chain; also called SAITAng-2-3 x DTN8VEGFR-2-2; not shown: human IgG1 heavy chain constant region with Fc region, from the vector; human light chain constant region, printed as 'constant region of human IgG1'
On to B4, for which the results for the IC50 in experiment [1] and in experiment [2] were 854 pM and 833 pM, respectively.

B5: Syn-Ang-VEGFR-15 (other)
heavy (part 1 of 2): DVQLVESGGGLVQPGGSRKLSCAASGFTFSSFGMHWVRQAPEKGLEWVAYISSDSSTIYYADTVKGRFTISRDNPKNTLFLQMTSLRSEDTAMYYCAREGGYDDYYAMDYWGQGTSVTVSS
heavy (part 2 of 2): PGSQGYCHLNMRYQWICDSE
light: DIQMTQSPASQSASLGESVTITCLASQTIGTWLAWYQQKPGKSPQLLIYAATSLADGVPSRFSGSGSGTKFSFKISSLQAEDFVSYYCQQLYSIPLTFGGGTKLEIK
notes: Chimeric (human IgG1) SAITAng-2-3 with the peptide at the C-terminus of the heavy chain; also called SAITAng-2-3 x DTN11VEGFR-2-5; not shown: human IgG1 heavy chain constant region with Fc region, from the vector; human light chain constant region, printed as 'constant region of human IgG1'
For B5, the values for the IC50 in experiment [1] and in experiment [2] were 1050 pM and 925 pM, respectively.

B6: Syn-Ang-VEGFR-13 (other)
heavy (part 1 of 2): DVQLVESGGGLVQPGGSRKLSCAASGFTFSSFGMHWVRQAPEKGLEWVAYISSDSSTIYYADTVKGRFTISRDNPKNTLFLQMTSLRSEDTAMYYCAREGGYDDYYAMDYWGQGTSVTVSS
heavy (part 2 of 2): EAGAYWCKAWGLSPCLVT
light: DIQMTQSPASQSASLGESVTITCLASQTIGTWLAWYQQKPGKSPQLLIYAATSLADGVPSRFSGSGSGTKFSFKISSLQAEDFVSYYCQQLYSIPLTFGGGTKLEIK
notes: Chimeric (human IgG1) SAITAng-2-3 with the peptide at the C-terminus of the heavy chain; also called SAITAng-2-3 x DTN9VEGFR-2-3; not shown: human IgG1 heavy chain constant region with Fc region, from the vector; human light chain constant region, printed as 'constant region of human IgG1'
As for B6, the IC50 was 914 pM in experiment [1] and 903 pM in experiment [2].
